Measurements from US5543392A, “Digestive tract cell activating agent of EGF and lactoferrin” (Morinaga Milk Industry Co., Ltd., priority 1992, dated 1996).

Key:
IEC18 cells [1] = test: Test 3: proliferation of small intestine epithelial cells (cell count by hemocytometer); assay type: cell-based, rat; settings: single addition of 50 μg/ml; sixth and tenth days of culture; compared with control group and EGF single group
Protocol: ICE18 cells (the same ones as in the Test 1) were inoculated onto a 24-well culture plate by 5,000 cells per well, and were cultured for ten days with 1% FBS DMEM (0.5 ml) containing the following test subjects. During this test period, the medium was replaced on the third and the sixth days, and the number of cells was measured on the third, the sixth and the tenth days. The number of cells was counted by a hemocytometer after treating the cells with 0.25% trypsin solution and suspending them in the solution.
The test subjects included a sample added with nothing, a sample added with 10 ng/ml EGF, a sample added with 50 μg/ml bLf or bLf-Hy, and a sample added with 10 ng/ml EGF and 50 μg/ml bLf or bLf-Hy.

IEC18 cells [2] = test: Test 2: effect of simultaneous use of Lf or Lf-Hy and EGF on DNA synthesis (3H-thymidine incorporation); assay type: cell-based, rat; settings: single use of bLf, various concentrations

B1: bLf: bovine lactoferrin (manufactured by Yukijirushi Nyugyo Company) (protein, UniProt P24627 20-708, looked up)
Lactotransferrin: APRKNVRWCTISQPEWFKCRRWQWRMKKLGAPSITCVRRAFALECIRAIAEKKADAVTLDGGMVFEAGRDPYKLRPVAAEIYGTKESPQTHYYAVAVVKKGSNFQLDQLQGRKSCHTGLGRSAGWIIPMGILRPYLSWTESLEPLQGAVAKFFSASCVPCIDRQAYPNLCQLCKGEGENQCACSSREPYFGYSGAFKCLQDGAGDVAFVKETTVFENLPEKADRDQYELLCLNNSRAPVDAFKECHLAQVPSHAVVARSVDGKEDLIWKLLSKAQEKFGKNKSRSFQLFGSPPGQRDLLFKDSALGFLRIPSKVDSALYLGSRYLTTLKNLRETAEEVKARYTRVVWCAVGPEEQKKCQQWSQQSGQNVTCATASTTDDCIVLVLKGEADALNLDGGYIYTAGKCGLVPVLAENRKSSKHSSLDCVLRPTEGYLAVAVVKKANEGLTWNSLKDKKSCHTAVDRTAGWNIPMGLIVNQTGSCAFDEFFSQSCAPGADPKSRLCALCAGDDQGLDKCVPNSKEKYYGYTGAFRCLAEDVGDVAFVKNDTVWENTNGESTADWAKNLNREDFRLLCLDGTRKPVTEAQSCHLAVAPNHAVVSRSDRAAHVKQVLLHQQALFGKNGKNCPDKFCLFKSETKNLLFNDNTECLAKLGGRPTYEEYLGTEYVTAIANLKKCSTSPLLEACAFLTR
IEC18 cells [1]
  number of cells (FIGS. 3 and 4): significantly increased
IEC18 cells [2]
  quantity of incorporated 3H-thymidine into DNA (FIG. 1): no effect
